Reference: US8241627B2, “Modified polypeptides stabilized in a desired conformation and methods for producing same” (The Center for Blood Research, Inc., priority 2000, dated 2012)

Key:
Type in all cases: cell-based
[1] = molecular target: T1, wild-type LFA-1 (Homo sapiens, UniProt P20701); assay: Inhibition of binding of wild-type LFA-1 transfectants to immobilized ICAM-1; details: lovastatin 0-50 μM; cells stimulated with Mn2+ or antibody CBRLFA1/2
T1 construct: expressed in transfected cells
Procedure: (§1) Briefly, ICAM-1 was purified from human tonsil, and coated to 96-well plates as described previously (Lu, C and Springer T A, (1997) J Immunol 159:268-278). Cells were labeled with a florescence dye 2′,7′-bis-(carboxyethyl)-5(and-6)-carboxyfluorescein, acetoxymethyl ester (BCECF-AM), and resuspended to 1×10^6/ml in L15/FBS. 50 μl cell suspension was mixed in ICAM-1 coated wells with an equal volume of L15/FBS in the absence or presence of monoclonal antibody (CBRLFA-1/2, 10 μg/ml). Monoclonal antibodies were used at final concentration of 1:20 hybridoma supernatant, 1:200 ascites, or μg/ml purified IgG. For testing the effect of divalent cations, BCECF-AM-labeled cells were washed 2× with TS buffer, pH7.5 (20 mM Tris, pH 7.5, 150 mMNaCl) containing 5 mM EDTA, followed by 2 washes with TS buffer, pH7.5. […] The fluorescence content of total input cells and the bound cells in each well was quantitated on a Fluorescent Concentration Analyzer (IDEXX, Westbrook, Me.). The bound cells were expressed as a percentage of total input cells per sample well. […]
(§2) The high affinity open I-domains of the invention can be used to discriminate between direct/competitive and indirect/non-competitive modes of inhibition of LFA-1. […] Accordingly, the ability of lovastatin to inhibit ligand binding of the high-affinity I-domain (K287C/K294C) was assessed. […]

[2] = molecular target: T2, LFA-1 mutant K287C/K294C (Homo sapiens, UniProt P20701, K312C/K319C); assay: Inhibition of binding of mutant K287C/K294C LFA-1 transfectants to immobilized ICAM-1; details: lovastatin 0-50 μM
T2 construct: expressed in transfected cells
Procedure: as §1, §2

[3] = molecular target: T3, ICAM-1 (Homo sapiens, UniProt P05362); assay: Binding of LFA-1 or isolated I-domain transfectants to immobilized ICAM-1; details: for binding of 293T transient transfectants to immobilized ICAM-1: no activating antibody
T3 construct: ICAM-1 was purified from human tonsil; from tissue; host or cells: human tonsil
Procedure: Clones of the transfectants that expressed similar levels of cell surface LFA-1, as determined by flow cytometry using monoclonal antibody TS2/4 (FIG. 3B), were tested for their ability to bind to immobilized ICAM-1, as previously described (Lu, C and Springer, T A (1997) J Immunol 159:268-278).
Briefly, ICAM-1 was purified from human tonsil, and coated to 96-well plates as described previously (Lu, C and Springer T A, (1997) J Immunol 159:268-278). Cells were labeled with a florescence dye 2′,7′-bis-(carboxyethyl)-5(and-6)-carboxyfluorescein, acetoxymethyl ester (BCECF-AM), and resuspended to 1×10^6/ml in L15/FBS. 50 μl cell suspension was mixed in ICAM-1 coated wells with an equal volume of L15/FBS in the absence or presence of monoclonal antibody (CBRLFA-1/2, 10 μg/ml). Monoclonal antibodies were used at final concentration of 1:20 hybridoma supernatant, 1:200 ascites, or μg/ml purified IgG. For testing the effect of divalent cations, BCECF-AM-labeled cells were washed 2× with TS buffer, pH7.5 (20 mM Tris, pH 7.5, 150 mMNaCl) containing 5 mM EDTA, followed by 2 washes with TS buffer, pH7.5. Cells were then resuspended to 5×10^5/ml in the TS buffer, pH7.5 supplemented with 1 mM MgCl2/CaCl2, MgCl2, MnCl2 mM EDTA, and 100 μl cell suspension was added to ICAM-1 coated wells. After incubation at 37° C. for 30 minutes, unbound cells were washed off on a Microplate Autowasher (Bio-Tek Instruments, Winooski, Vt.). The fluorescence content of total input cells and the bound cells in each well was quantitated on a Fluorescent Concentration Analyzer (IDEXX, Westbrook, Me.). The bound cells were expressed as a percentage of total input cells per sample well.
For generating stable K562 transfectants that express the I-domain on the surface, 20 μg of SspI-linearized pcDNA3.1/Hygro(+) containing the sequences encoding the I domain and the PDGFR transmembrane domain was used to transfect K562 cells by electroporation as described above. Transfectants were selected for resistance to 100 μg/ml hygromycin B, and were further subcloned by cell sorting and limiting dilution; clones that expressed similar levels of surface wild-type and mutant I domain-PDGFR were selected for functional studies. Stable cell lines were maintained in RPMI medium 1640 supplemented with 10% FBS and 100 μg/ml hygromycin B. Cell surface expression of the isolated I-domains was determined by flow cytometry using antibody TS1/22 to the I-domain (FIG. 7). Two clones from each transfectant were selected and tested for binding to immobilized ICAM-1, and similar results were obtained with each of the two clones (FIG. 8A).
If the constitutive ligand binding activity of mutant K287C/K294C is due to the formation of a disulfide bond between the introduced C287 and C294, disruption of the disulfide bond with a reducing agent would abolish ligand binding ability of the mutant. Accordingly, the transfectants were treated with the reducing agent DTT (10 mM) in L15/FBS containing Mg^2+ and Ca^2+, and the ability of transfectants to bind to ICAM-1 was assessed.
Furthermore, the effect of divalent cations on ligand binding of the isolated I-domains expressed on the surface of K562 transfectants was tested. The binding reactions were performed in HEPES/NaCl/glucose (20 mM HEPES, pH 7.5, 140 mM NaCl, 2 mg/ml glucose) supplemented with 1 mM […], 1 mM Mg^2+, or 1 mM EDTA.

[4] = molecular target: T4, iC3b (Homo sapiens, UniProt P01024); assay: Adhesion of αMβ2 (Mac-1) or αM I-domain transfectants to immobilized iC3b
T4 construct: mutant to iC3b coated on plastic
From the text: In order to assess the effect of the introduction of pairs of potentially disulfide bond-forming cysteines into the I-domain of αMβ2 on CBRM 1/5 activation-dependent epitope expression and ligand binding, plasmids encoding the wild-type or mutant αM subunits and the β2 subunit were co-transfected into 293T and K562 cells. α.β heterodimer formation was confirmed using monoclonal antibody CBRM1/32 which recognizes an epitope in the putative β-propeller domain of the αM subunit only after association with the β2 subunit, and antibody CBRM1/5 was used to detect integrin activation.
Alternatively, isolated Mac-1 mutant I-domains were expressed on the cell surface in conjunction with an artificial signal sequence and transmembrane domain of the PDGF receptor. Adhesion was assayed in L15/FBS/MnCl2 at 37° C.
In a further study, the open I-domain mutants Q 163C/Q309C and D294C/Q311C were stably expressed in K562 cells, and clones expressing the same levels of receptors were selected. Adhesion assays to immobilized iC3b were performed with L15/FBS at 37° C.
Binding of αMβ2 transfectants containing mutant I-domains to immobilized iC3b on plastic was tested in the presence and absence of DTT.

T4 sequence (P01024 23-667 limits assumed): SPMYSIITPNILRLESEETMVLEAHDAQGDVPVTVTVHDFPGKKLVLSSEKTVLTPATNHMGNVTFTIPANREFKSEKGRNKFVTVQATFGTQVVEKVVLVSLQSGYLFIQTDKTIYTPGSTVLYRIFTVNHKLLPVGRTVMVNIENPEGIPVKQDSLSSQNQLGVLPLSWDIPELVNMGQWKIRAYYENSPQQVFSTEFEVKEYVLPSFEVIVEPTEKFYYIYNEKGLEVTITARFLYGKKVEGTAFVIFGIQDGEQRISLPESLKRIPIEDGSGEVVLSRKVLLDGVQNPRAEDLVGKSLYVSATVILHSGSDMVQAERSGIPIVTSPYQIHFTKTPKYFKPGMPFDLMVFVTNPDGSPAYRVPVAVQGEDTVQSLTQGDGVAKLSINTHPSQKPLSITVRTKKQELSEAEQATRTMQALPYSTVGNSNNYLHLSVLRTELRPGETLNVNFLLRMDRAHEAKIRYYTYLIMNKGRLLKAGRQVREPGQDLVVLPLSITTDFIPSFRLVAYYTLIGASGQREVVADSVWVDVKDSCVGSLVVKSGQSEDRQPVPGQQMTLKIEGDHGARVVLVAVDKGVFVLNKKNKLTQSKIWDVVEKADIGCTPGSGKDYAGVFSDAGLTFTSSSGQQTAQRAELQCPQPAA
T4 sequence (P01024 749-1303 limits assumed): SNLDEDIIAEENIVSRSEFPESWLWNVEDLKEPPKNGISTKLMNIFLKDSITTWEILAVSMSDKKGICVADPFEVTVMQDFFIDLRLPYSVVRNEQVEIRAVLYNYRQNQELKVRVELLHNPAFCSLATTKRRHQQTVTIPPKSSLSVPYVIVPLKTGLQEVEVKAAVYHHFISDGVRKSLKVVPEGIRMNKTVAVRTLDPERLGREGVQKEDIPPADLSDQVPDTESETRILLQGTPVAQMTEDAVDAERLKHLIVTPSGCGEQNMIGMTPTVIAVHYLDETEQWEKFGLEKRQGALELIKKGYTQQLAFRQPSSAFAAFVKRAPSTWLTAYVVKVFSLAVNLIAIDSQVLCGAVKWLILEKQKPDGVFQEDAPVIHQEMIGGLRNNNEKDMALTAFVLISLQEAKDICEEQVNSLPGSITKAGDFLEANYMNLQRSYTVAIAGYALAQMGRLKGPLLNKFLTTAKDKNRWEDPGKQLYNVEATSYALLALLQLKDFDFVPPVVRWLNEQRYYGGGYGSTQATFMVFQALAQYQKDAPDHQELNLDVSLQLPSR
T4 sequence (P01024 1321-1663 limits assumed): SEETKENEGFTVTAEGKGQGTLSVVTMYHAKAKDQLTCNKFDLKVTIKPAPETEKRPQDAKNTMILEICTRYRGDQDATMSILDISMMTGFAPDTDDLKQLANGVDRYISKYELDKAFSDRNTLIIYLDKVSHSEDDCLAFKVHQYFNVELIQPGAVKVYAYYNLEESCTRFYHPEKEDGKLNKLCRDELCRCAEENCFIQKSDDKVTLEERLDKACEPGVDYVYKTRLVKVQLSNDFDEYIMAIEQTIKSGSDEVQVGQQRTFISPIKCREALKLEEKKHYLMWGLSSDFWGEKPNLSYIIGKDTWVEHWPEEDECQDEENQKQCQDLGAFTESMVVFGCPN
T3 sequence (P05362 28-532): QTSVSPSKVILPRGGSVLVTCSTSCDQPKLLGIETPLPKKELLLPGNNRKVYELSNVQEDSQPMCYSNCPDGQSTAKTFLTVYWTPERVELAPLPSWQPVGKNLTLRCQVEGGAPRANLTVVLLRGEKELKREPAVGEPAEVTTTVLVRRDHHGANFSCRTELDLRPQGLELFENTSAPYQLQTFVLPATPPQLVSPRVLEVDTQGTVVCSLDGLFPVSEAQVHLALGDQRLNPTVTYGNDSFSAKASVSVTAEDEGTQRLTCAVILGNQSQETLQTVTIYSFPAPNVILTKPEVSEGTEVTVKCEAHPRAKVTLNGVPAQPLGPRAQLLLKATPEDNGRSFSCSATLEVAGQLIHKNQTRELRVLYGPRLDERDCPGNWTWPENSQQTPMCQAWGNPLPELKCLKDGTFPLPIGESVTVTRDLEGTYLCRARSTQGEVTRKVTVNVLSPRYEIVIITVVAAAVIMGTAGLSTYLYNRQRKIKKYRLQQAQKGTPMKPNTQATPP
T2 sequence (P20701 26-1170 K312C/K319C): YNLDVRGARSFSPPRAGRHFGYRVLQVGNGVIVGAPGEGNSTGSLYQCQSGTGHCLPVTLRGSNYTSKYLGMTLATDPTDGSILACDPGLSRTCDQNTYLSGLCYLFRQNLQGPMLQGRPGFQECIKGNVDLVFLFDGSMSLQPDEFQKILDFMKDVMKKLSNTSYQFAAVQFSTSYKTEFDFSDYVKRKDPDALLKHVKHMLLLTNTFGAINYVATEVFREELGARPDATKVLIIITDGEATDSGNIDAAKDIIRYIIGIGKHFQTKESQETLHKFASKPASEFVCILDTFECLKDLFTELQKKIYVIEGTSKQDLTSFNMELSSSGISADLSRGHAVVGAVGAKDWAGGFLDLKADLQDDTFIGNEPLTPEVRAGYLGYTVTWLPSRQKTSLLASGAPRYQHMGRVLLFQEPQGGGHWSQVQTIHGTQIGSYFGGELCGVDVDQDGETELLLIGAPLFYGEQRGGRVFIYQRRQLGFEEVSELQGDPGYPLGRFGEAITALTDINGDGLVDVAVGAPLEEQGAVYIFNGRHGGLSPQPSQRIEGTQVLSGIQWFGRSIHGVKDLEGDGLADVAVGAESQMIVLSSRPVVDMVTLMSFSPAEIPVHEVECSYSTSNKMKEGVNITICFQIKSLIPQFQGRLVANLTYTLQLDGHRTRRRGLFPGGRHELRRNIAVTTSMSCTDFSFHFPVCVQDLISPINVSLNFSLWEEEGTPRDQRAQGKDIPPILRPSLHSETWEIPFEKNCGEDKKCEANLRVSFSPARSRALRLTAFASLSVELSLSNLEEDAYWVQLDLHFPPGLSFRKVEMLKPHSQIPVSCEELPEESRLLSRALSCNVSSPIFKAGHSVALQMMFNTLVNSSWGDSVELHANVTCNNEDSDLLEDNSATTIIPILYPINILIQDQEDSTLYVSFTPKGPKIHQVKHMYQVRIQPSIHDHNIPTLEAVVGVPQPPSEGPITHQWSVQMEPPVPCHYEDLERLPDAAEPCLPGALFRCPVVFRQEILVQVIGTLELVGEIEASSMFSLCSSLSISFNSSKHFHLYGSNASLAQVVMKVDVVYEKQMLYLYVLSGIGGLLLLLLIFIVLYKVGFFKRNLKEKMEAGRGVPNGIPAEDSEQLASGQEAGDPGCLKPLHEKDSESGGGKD
T2 sequence (P05107 23-769 partner): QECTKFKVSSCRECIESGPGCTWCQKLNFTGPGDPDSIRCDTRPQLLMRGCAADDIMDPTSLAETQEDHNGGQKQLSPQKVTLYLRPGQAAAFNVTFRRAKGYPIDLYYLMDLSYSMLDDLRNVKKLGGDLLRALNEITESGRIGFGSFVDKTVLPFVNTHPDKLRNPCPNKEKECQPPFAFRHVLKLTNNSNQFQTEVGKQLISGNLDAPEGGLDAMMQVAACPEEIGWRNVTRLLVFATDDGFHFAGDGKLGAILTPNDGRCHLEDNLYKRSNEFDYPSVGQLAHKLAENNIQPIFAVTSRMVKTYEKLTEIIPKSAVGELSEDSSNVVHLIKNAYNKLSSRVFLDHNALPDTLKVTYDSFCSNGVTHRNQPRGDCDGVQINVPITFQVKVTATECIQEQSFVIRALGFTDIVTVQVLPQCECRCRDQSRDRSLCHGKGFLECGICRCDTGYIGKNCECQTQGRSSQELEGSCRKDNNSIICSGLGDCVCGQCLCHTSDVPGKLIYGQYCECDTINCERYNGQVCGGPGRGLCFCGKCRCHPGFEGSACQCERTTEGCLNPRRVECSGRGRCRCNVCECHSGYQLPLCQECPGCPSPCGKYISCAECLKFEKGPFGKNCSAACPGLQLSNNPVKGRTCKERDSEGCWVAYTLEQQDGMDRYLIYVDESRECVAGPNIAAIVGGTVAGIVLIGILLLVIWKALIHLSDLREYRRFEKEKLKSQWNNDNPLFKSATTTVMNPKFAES
T1 sequence (P20701 26-1170): as the sequence (P20701 26-1170 K312C/K319C) above, with C287K, C294K counted along it
T1 sequence (P05107 23-769 partner): as the sequence (P05107 23-769 partner) above

Molecule: CC[C@H](C)C(=O)O[C@H]1C[C@@H](C)C=C2C=C[C@H](C)[C@H](CC[C@@H]3C[C@@H](O)CC(=O)O3)[C@H]21 [lovastatin]
- inhibition of ICAM-1 binding by cells expressing wild-type LFA-1 [1]: inhibits
- interference with ligand binding by the high affinity open K287C/K294C mutant [2]: does not interfere

Molecule: K294C: single cysteine substitution mutant of LFA-1 αL
- binding of 293T transient transfectants to immobilized ICAM-1 ([3]; 293T): comparable to that of the wild-type

Molecule: L289C: single cysteine substitution mutant of LFA-1 αL
- binding of 293T transient transfectants to immobilized ICAM-1 with activating mAb CBRLFA-1/2 ([3]; 293T, CBRLFA-1/2 10 μg/ml): increased
- binding of 293T transient transfectants to immobilized ICAM-1 ([3]; 293T): reduced binding

Molecule: Wild type: wild-type αMβ2 (Mac-1) transfectant
- effect of DTT on binding of intact αMβ2 ([4]; DTT): increased binding
- adhesion of αMβ2 transfectant to iC3b, +DTT +activation ([4]; DTT treatment, activated by mAb CBR LFA-1/2): ++++ (++++: 75-100% of binding by activated wild type transfectant)
- adhesion of αMβ2 transfectant to iC3b, +DTT −activation ([4]; DTT treatment, no activating mAb): ++ (++25-50%)
- ligand binding (iC3b) of intact αMβ2 heterodimer in K562 stable transfectants ([4]; K562, L15/FBS at 37° C.): little basal activity
- adhesion of αMβ2 transfectant to iC3b, −DTT +activation ([4]; no DTT, activated by mAb CBR LFA-1/2): ++++ (++++: 75-100% of binding by activated wild type transfectant)
- adhesion of αMβ2 transfectant to iC3b, −DTT −activation ([4]; no DTT, no activating mAb): ± (+−.: 0-5%)

Molecule: wild-type LFA-1: wild-type human αL/β2 (LFA-1) expressed on 293T or K562 transfectants [reference compound]
- binding of 293T transient transfectants to immobilized ICAM-1 ([3]; 293T): constitutively strong binding
- binding of K562 stable transfectants to immobilized ICAM-1 with activating mAb CBRLFA-1/2 ([3]; K562, CBRLFA-1/2 10 μg/ml): greatly increased
- effect of Mn2+ and Mg2+ on binding of K562 transfectants to ICAM-1 ([3]; K562, intact LFA-1, Mn2+ / Mg2+): greatly enhanced
- binding of K562 stable transfectants to immobilized ICAM-1 ([3]; K562, no activating antibody): low basal binding
- effect of DTT treatment on binding to ICAM-1 ([3]; K562 transfectants, DTT 10 mM in L15/FBS): increased binding
